Test system: BglII restriction endonuclease (R.BglII) (Bacillus globigii)
Experiment: cleavage_in_vitro
Details: nonspecific nicking test; 80 units, 4 h, 37 C, 10 mM MgCl2

phiX174 RFI DNA showed an activity (% converted to RFII) of 10.

From patent US5434068
